B1: DOA4-independent degradation protein 4 (Saccharomyces cerevisiae), P36108 (parent)
chain: MSLFEWVFGKNVTPQERLKKNQRALERTQRELEREKRKLELQDKKLVSEIKKSAKNGQVAAAKVQAKDLVRTRNYIQKFDNMKAQLQAISLRIQAVRSSDQMTRSMSEATGLLAGMNRTMNLPQLQRISMEFEKQSDLMGQRQEFMDEAIDNVMGDEVDEDEEADEIVNKVLDEIGVDLNSQLQSTPQNLVSNAPIAETAMGIPEPIGAGSEFHGNPDDDLQARLNTLKKQT
partner: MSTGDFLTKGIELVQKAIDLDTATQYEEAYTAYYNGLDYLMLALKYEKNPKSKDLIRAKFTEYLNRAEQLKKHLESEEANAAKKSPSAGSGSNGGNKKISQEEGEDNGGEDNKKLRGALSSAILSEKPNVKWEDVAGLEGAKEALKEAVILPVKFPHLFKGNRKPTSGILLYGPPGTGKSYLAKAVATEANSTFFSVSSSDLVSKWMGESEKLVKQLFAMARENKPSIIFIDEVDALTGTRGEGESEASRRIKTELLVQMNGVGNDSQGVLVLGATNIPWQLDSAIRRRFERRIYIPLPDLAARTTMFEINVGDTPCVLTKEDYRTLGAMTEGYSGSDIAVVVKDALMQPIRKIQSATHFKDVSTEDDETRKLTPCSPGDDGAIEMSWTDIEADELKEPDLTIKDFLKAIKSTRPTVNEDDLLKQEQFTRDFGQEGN

Variants of: B1
Conditions: with vps4_yeast VPS4, P52917

Variant	effect of a mutation on the interaction
R224D	disrupting interaction strength
L221D	disrupting interaction strength
L225D	disrupting interaction strength

Further lines, results first:

effect of a mutation on the interaction	Variant
disrupting interaction strength	L228D
disrupting interaction strength	K229D

From IntAct's records for PubMed 17928861
